Laboratory results: patent US20020127539A1, “Assays for identifying receptors having alterations in signaling” (priority 2000, published 2002)

How the values were obtained:
[1] = molecular target: Asn150Ala mutant rat mu opioid receptor (rat); assay: cell-based or functional assay
[2] = molecular target: wild-type rat mu opioid receptor (rat); assay: cell-based or functional assay

[D-Ala2-MePhe4, Gly-ol5]enkephalin (peptide)
Average Ligand Stimulated Activity (Light Emission), SRE-Luc + Gq5i luciferase reporter in HEK293 cells (light emission) [1]: 87000 | Average Ligand Stimulated Activity (Light Emission), SRE-Luc + Gq5i luciferase reporter in HEK293 cells (light emission) [2]: 87500
